According to patent US20230227520A1 (MAX PLANCK GESELLSCHAFT ZUR F RDERUNG DER WISSENSCHAFTEN E V, published 2023):
Like-named read-outs stand apart in the source and are kept apart here.

T1: G-CSF Receptor (G-CSFR) (R&D systems 381-GR-050/CF), recombinant human (human, UniProt Q99062 25-627, limits assumed)
T1 construct: Bought protein, amine-coupled to a CM5 chip; also called rhG-CSFR; human G-CSF receptor
T1 sequence (looked up): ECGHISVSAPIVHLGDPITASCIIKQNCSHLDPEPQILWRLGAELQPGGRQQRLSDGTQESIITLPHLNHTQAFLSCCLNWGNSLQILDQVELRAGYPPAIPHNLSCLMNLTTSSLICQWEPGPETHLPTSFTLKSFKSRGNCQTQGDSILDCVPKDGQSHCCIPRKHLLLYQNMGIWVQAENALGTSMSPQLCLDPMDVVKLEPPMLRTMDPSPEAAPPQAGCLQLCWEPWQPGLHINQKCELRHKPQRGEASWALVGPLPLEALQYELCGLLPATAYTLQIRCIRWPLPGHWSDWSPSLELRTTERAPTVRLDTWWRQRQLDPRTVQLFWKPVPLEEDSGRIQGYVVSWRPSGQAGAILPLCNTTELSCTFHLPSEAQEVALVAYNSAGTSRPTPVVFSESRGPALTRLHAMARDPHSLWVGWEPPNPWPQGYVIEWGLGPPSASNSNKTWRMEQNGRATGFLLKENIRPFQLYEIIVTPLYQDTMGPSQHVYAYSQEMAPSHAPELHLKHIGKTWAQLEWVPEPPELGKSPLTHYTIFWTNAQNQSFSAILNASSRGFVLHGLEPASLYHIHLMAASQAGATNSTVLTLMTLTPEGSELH

T2: G-CSFR on NFS-60 cells (murine myeloblastic cell line) (mouse, UniProt P40223 26-837)
T2 sequence (looked up): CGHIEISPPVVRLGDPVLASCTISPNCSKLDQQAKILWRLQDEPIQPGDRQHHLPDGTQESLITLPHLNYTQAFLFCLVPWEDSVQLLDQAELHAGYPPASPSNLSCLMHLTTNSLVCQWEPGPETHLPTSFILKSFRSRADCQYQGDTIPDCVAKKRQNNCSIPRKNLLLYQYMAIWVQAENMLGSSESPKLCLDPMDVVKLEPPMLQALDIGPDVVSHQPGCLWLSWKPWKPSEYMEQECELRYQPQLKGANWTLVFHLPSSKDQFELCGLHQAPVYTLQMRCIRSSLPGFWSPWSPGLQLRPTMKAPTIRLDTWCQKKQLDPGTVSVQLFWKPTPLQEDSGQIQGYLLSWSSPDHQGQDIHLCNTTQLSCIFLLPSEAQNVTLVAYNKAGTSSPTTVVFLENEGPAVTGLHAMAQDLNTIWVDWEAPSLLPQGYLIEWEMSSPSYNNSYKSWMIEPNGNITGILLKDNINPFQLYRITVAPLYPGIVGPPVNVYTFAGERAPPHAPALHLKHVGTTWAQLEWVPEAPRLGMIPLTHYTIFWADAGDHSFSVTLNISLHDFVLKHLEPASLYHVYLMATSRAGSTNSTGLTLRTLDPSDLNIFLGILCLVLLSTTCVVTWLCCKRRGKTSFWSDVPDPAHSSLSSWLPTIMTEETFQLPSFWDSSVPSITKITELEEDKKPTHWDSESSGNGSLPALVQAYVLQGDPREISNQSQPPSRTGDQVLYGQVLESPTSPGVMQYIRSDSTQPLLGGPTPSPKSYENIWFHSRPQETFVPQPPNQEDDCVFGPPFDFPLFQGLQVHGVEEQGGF


Experiments:
[1] = biological target: T1, G-CSF Receptor (G-CSFR) (R&D systems …); test: SPR, Biacore X100 single-cycle kinetics, G-CSFR amine-coupled on CM5, 1:1 binding model
Experimental: To test whether the grafted epitope residues mediate binding of the designs to the G-CSF receptor, the inventors also performed SPR measurements for the Moevan and diSohair2 initial design templates (Moevan_control and diSohair_control, respectively), and no binding was observed (FIG. 20C,F).
Single-cycle kinetics experiments were performed on a Biacore X100 system (GE Healthcare Life Sciences). G-CSF Receptor (G-CSFR) (R&D systems 381-GR-050/CF) was diluted to 50 μg/ml in 10 mM acetate buffer pH 5.0 and immobilized on the surface of a CM5 sensor chip (GE Healthcare 29149604) using standard amine coupling chemistry. The designs and rhG-CSF (USP RS Filgrastim, Sigma-Aldrich 1270435) were diluted in running buffer (10 mM HEPES, 150 mM NaCl, 3.4 mM EDTA, 0.005% v/v Tween-20). Analyses were conducted at 25° C. at a flow rate of 30 μl/min. Five sequential 10-fold increasing concentrations of the sample solution (for the designs from 0.5 nM to 50 μM, and for rhG-CSF from 0.05 to 500 nM) were injected over the functionalized sensor chip surface for 180 s, followed by a 180 s dissociation with running buffer. At the end of each run, the sensor surface was regenerated with a 240 s injection of 10 mM glycine-HCl pH 2.0. Each experiment was performed two times for rhG-CSF, Boskar3, Boskar4, diSohair2, Moevan, and Moevan_t2. Association rate (ka), dissociation rate (kd), and equilibrium dissociation (Kd) constants were initially obtained by global fitting of the experimental reference-subtracted data to a 1:1 interaction model using the Biacore X100 evaluation software (v.2.0.1). To evaluate if a kinetics model that depends on double the analyte stoichiometry improves the goodness of fit to the data, the following rate integral was used: […]

[2] = biological target: T2, G-CSFR on NFS-60 cells (murine …); test: cell-based or functional assay
[3] = biological target: T1, G-CSF Receptor (G-CSFR) (R&D systems …); test: SPR (Biacore), G-CSFR immobilised on the chip, Moevan_t2 2 nM - 32 nM as analyte, five traces with binding model fit [panel E]
[4] = biological target: T2, G-CSFR on NFS-60 cells (murine …); test: cell-based or functional assay; remark: listed apart in the source
[5] = biological target: T1, G-CSF Receptor (G-CSFR) (R&D systems …); test: SPR (Biacore), G-CSFR immobilised on the chip, diSohair2 250 nM - 4000 nM as analyte, five traces with binding model fit [panel B]

Row | Binder | NFS-60 EC50 (ng/mL), proliferation of NFS-60 cells [2] [ng/mL] | NFS-60 EC50 (ng/mL), proliferation of NFS-60 cells [4] [ng/mL] | also measured
1 | Moevan_t2 (designed binder, Tandem fusion of two Moevan copies joined by a 24 amino acid GS linker) EAAAAARDESAYLKLQEQMRKIDADAAALSETRTIEELDTFKLDVADFVTTVVQLAEELEHRFGRNRRGRTEIYKIVKEVDRKLLDLTDAVLAKEKKGEDILNMVAEIKALLINIYKGGGGSSGGGGSSGGGGSSGGGGSSEAAAAARDESAYLKLQEQMRKIDADAAALSETRTIEELDTFKLDVADFVTTVVQLAEELEHRFGRNRRGRTEIYKIVKEVDRKLLDLTDAVLAKEKKGEDILNMVAEIKALLINIYK | 47.1 |  | Kd [1]: 1.1 nM; koff [1]: 0.0003 s⁻¹; kon [1]: 310000 M⁻¹ s⁻¹; Kd [3]: 1.2 nM; koff [3]: 0.00036 s⁻¹; kon [3]: 300000 M⁻¹ s⁻¹
2 | sohair2_15r (designed binder) MTSDYIIEQIQRKQEEARLKVEEQERKLEAVKEASKRGVSSDQLLNLILDLADIITTLIQIIEESNEAIKELIKNQGGGGSGGGGSGGGGSDYIIEQIQRKQEEARLKVEEQERKLEAVKEASKRGVSSDQLLNLILDLADIITTLIQIIEESNEAIKELIKNQ | 228 |  | 
3 | moevan_st2 (designed binder) EAAAAARDESAYLKLQEQMRKIDADAAALSETRTIEELDTFKLDVADFVTTVVQLAEELEHRFGRNRRGRTEIYKIVKEVDRKLLDLTDAVLAKEKKGEDILNMVAEIKALLINIYKGGGGSSEAAAAARDESAYLKLQEQMRKIDADAAALSETRTIEELDTFKLDVADFVTTVVQLAEELEHRFGRNRRGRTEIYKIVKEVDRKLLDLTDAVLAKEKKGEDILNMVAEIKALLINIYK | 8.89 |  | 
4 | Boskar_2 (designed binder) AALAAELAEIMKGLQEYQARLKSLEGISPELGPALDALRLDMADFATTMAQMMEENPSDLPQSFLLKALEQIRKIQADAAALREKLAATYPNSQRAAAAVEIAAQLEAFLEKAYQILRHLAAA |  | 3220 | 
5 | boskar4_15rl (designed binder) AALAAALAEIYKGLAEYQARLKSLEGISPELGPALDALRLDMADFATTMAQAMEGGGGSGGGGSGGGGSQSFLLKALEQIRKIQADAAALREKLAATYKGNDRAAAAVEIAAQLEAFLEKAYQILRHLAAA | 48.5 |  | 
6 | Disohair_1 (designed binder) MTSDYIIEQIQRKQEEARLKVEEMERKLEEVKEASKRGVSSDQLLNLILDLADIITTLIQIIEESNEAIKELIKNQ |  | 2380 | 
7 | Disohair_2 (designed binder, Expressed with an N-terminal hexa-His-tag and thrombin site) MTSDYIIEQIQRKQEEARLKVEEQERKLEAVKEASKRGVSSDQLLNLILDLADIITTLIQIIEESNEAIKELIKNQ |  | 396 | Kd [1]: 4500 nM; koff [1]: 0.0095 s⁻¹; kon [1]: 2100 M⁻¹ s⁻¹; Kd [5]: 4550 nM; koff [5]: 0.00949 s⁻¹; kon [5]: 2080 M⁻¹ s⁻¹
8 | Boskar_1 (designed binder) AALAAELAEIYKGLAEYQARLQSLEGISPELGPALDALRLDVADFATTLAQAMEEKKTNLPQSFLLKALEQIRKIQADAAALREKLAATYTGTDRAAAAVEIAAQLEAFLEKAYEILRHLAAA |  | 2170 | 
9 | boskar4_t2 (designed binder) AALAAALAEIYKGLAEYQARLKSLEGISPELGPALDALRLDMADFATTMAQAMEEGLDSLPQSFLLKALEQIRKIQADAAALREKLAATYKGNDRAAAAVEIAAQLEAFLEKAYQILRHLAAAGGGGSSGGGGSSGGGGSSGGGGSSAALAAALAEIYKGLAEYQARLKSLEGISPELGPALDALRLDMADFATTMAQAMEEGLDSLPQSFLLKALEQIRKIQADAAALREKLAATYKGNDRAAAAVEIAAQLEAFLEKAYQILRHLAAA | 4.2 |  | 
10 | Sohair (designed binder) MTSDYIIEQIQRKQEEARLKVEEMERKLEAVKEASKRGVSSDQLLNLILDLADIITTLIQIIEESNEAIKELIKNQKGPTSDYIIEQIQRDQEEARKKVEEAEERLERVKEASKRGVSSDQLLDLIRELAEIIEELIRIIRRSNEAIKELIKNQ |  | 5050 | 
11 | bika1 (designed binder) SKEVLEQSLFLKLDEQVRKLLADIHAIKIDRITGNMDKQKLDTAYLDVADIETTLYQLIEVSH | 63 |  | 
12 | bika2 (designed binder) SKEVLEQSLFLKLDEQVRKLLADIHAIKIDRITGNMDKQKLDTLYLDVADIETTLYQLIEVSH | 98 |  | 
13 | boskar4_st2 (designed binder) AALAAALAEIYKGLAEYQARLKSLEGISPELGPALDALRLDMADFATTMAQAMEEGLDSLPQSFLLKALEQIRKIQADAAALREKLAATYKGNDRAAAAVEIAAQLEAFLEKAYQILRHLAAAGGGGSSAALAAALAEIYKGLAEYQARLKSLEGISPELGPALDALRLDMADFATTMAQAMEEGLDSLPQSFLLKALEQIRKIQADAAALREKLAATYKGNDRAAAAVEIAAQLEAFLEKAYQILRHLAAA | 0.202 |  | 
